Experimental data: patent publication US20220332804A1 (CSL INNOVATION, published 2022)
Numbering of substitutions follows the chain as printed.

How the values were obtained:
Test in all cases: SPR, KD relative to WT C2;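 also: biacore SPR at 37 °C, anti-C2 mAbs captured on anti-human IgG chips with alanine or serine point mutants of C2 as analyte, KD from 1:1 fit compared with wild-type C2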
human C2 S456A = target: T1, human C2 S456A (human, UniProt P06681 21-752)
T1 sequence: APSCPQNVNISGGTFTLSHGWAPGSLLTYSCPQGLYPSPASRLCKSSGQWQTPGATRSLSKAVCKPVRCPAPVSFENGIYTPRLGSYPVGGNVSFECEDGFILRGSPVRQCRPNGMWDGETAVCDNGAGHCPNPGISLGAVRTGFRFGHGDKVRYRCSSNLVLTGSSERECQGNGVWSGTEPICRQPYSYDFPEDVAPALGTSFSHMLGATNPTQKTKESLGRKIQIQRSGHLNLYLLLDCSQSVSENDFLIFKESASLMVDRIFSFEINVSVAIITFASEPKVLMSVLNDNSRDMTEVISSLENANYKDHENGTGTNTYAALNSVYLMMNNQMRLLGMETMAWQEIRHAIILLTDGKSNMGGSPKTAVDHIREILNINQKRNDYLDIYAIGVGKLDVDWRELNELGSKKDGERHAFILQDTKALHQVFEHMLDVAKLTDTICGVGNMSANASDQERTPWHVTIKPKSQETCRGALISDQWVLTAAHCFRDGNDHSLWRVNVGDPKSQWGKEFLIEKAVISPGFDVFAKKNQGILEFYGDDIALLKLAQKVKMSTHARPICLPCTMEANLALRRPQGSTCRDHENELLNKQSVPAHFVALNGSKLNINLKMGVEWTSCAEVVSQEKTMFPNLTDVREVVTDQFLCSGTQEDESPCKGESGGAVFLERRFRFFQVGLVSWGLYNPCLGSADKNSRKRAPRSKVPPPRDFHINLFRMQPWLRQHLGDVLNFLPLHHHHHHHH

human C2 E450A = target: T2, human C2 E450A (human, UniProt P06681 21-752)
T2 sequence: T1 sequence with E430A, A436S

human C2 T317A = target: T3, human C2 T317A (human, UniProt P06681 21-752)
T3 sequence: T1 sequence with T297A, A436S

human C2 G466A = target: T4, human C2 G466A (human, UniProt P06681 21-752)
T4 sequence: T1 sequence with A436S, G446A

B1: RF16-242 (antibody, human IgG4 S228P, lambda, V domains shown)
VH: EVQLLQSGAEVKKPGESLKISCKGSGYSFTSYWIGWVRQMPGKGLEWMGIIYPGDSDTRYSPSFQGQVTISADKSISTAYLQWSSLKASDTAMYYCARRGHYGDYFDYWGQGTLVTVSS
VL: SYELTQPPSVSVSPGQTARITCSGDALPKKYAYWYHQKSGQAPVLVIYEDRRRPSEIPERFSGSSSGTMATLTITGAQVEDEGVYFCYSRDRAGNQRVFGGGTQLTVLG
notes: pH-dependent anti-C2 antibody from a phage display library
Fold diff (human C2 S456A): 9 fold | Fold diff (human C2 E450A): 3 fold | Fold diff (human C2 T317A): 1 fold | Fold diff (human C2 G466A): 4 fold
